# Data: patent publication US20250163157A1 (Boehringer Ingelheim, published 2025)
# Where a chain is given by its changes, count along the chain named. Numbers in names are those of the source.
# B1: reference antibody (full-length bivalent, monospecific, agonistic anti-CD277 antibody; heavy chain of SEQ ID NO:94, light chain of SEQ ID NO:93) (antibody, human IgG1, kappa, L234A L235A, V domains shown)
# VH: QVQLQQSGAELVKPGASVKLSCKASGYTFTRYYLYWVKQRPGQGLEWIGEINPNNGGTKFNEKFKSKATLTVDKSSRTTYIQLSSLTSEDSAVYYCSREDDYDGTPDAMDYWGQGTAVTVSS
# VL: DIQMNQSPSSLSASLGDTITITCHASQNINLWLSWYQQRPGNIPKLLIYRASNLHTGVPSRFSGSGSATGFTLTISSLQPEDIATYYCQQGHSYPYTFGGGTKLDIKR
# notes: also called parent antibody
# B2: Antibody 47 (anti-CD277; VL parent, VH CDR2 N185S, K190N) (antibody, V domains shown)
# VH: B1 VH with N54S, K59N
# VL: DIQMNQSPSSLSASLGDTITITCHASQNINLWLSWYQQRPGNIPKLLIYRASNLHTGVPSRFSGSGSATGFTLTISSLQPEDIATYYCQQGHSYPYTFGGGTKLDIK
# notes: also called EvB#47; EvB#23
# B3: Antibody 52 (anti-CD277; VL CDR1 L31V, VH CDR2 N185S, K190N) (antibody, V domains shown)
# VH: B1 VH with N54S, K59N
# VL: B2 VL with L31V
# notes: Its constructs use human IgG1 with L234A/L235A and human kappa; also called EvB#52; EvB#29
# Target: T1, recombinant CD277 (human, UniProt O00481 30-254, limits assumed)
# T1 construct: It gives no isoform (BTN3A1, A2 or A3), construct limits or supplier; also called BTN3A; Butyrophilin 3 family member BTN3A
# T1 sequence (O00481 30-254 limits assumed): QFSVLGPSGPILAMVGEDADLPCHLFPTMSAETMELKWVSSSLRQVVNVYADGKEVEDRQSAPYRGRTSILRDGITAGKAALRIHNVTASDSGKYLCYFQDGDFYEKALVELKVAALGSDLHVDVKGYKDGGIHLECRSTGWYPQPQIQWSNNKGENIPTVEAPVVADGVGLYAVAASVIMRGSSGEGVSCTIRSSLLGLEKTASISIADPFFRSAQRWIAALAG
# Assay: SPR (Biacore), recombinant CD277 amine-coupled to CM5 chip, antibody as analyte, 1:1 Langmuir fit
# Procedure: SPR assay was performed according to the state of the art. In short, recombinant CD277 was immobilized to the surface of a Biacore CM5 optical sensor chip by covalent EDC/NHS coupling following the Biacore amine coupling kit protocol. Antibody samples were applied as analytes in serial dilution allowing standardized comparison of all antibodies binding to the identical target molecule surface. Kinetic analysis data are based on 1:1 Langmuir curve fitting model and mean Langmuir on-rates, off-rates and KD values: see table 5.
row,Kd [nM],Binder
1,2.8,B1
2,26.3,B2
3,13.9,B3
